We go through seven molecules from paper PMC2752054.

The target of data set [1] is T1, N-HisPurβ (Purine-rich element binding protein B) (UniProt O35295 1-324).
T1 sequence: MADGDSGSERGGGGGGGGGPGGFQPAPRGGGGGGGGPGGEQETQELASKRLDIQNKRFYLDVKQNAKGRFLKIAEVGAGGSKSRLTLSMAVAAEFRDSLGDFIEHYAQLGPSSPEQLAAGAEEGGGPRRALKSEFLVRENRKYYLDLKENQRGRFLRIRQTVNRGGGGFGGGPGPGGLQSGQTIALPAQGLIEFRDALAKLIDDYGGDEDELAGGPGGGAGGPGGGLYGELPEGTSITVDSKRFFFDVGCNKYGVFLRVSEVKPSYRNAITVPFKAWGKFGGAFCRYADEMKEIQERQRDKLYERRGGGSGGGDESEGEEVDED
Kind of data set: competition.

For data set [2], the target named is T1, N-HisPurβ (Purine-rich element binding …). Nature of the data set: competition. The source holds these as a separate data set.
Data set [3] shares this target. Nature of the data set: competition. The source holds these as a separate data set.
Data set [4] shares this target. Nature of the data set: EMSA.
Data set [5] has the same target. Nature of the data set: competition. The source holds these as a separate data set.
Data set [6] has the same target. Kind of data set: competition. This is another data set of the same source.
For data set [7] the target is unchanged. Kind of data set: competition. The source holds these as a separate data set.

Where two headings read alike, the source gives them in different places. Bounds are passed on as bounds.

B1: PE32-F-5T7 (ssDNA)
DNA: TTTTTTTGAACAGAGGAATGCAGTGGAAGAGA
Take B1: the binding signal in data set [1] was ~4 fold IC50 increase vs PE32-F.

B2: PE32-F-IT7 (ssDNA)
DNA: GGGAGCAGAACAGTTTTTTTCAGTGGAAGAGA
As to B2, in data set [2], the binding result is “binds”.

B3: PE32-F (PE32-F*, PE32-bF, PE32-F-3FLC) (ssDNA)
DNA: GGGAGCAGAACAGAGGAATGCAGTGGAAGAGA
The Kd is a measure of binding affinity in units of concentration. Turning to B3, in data set [3], the binding signal is 1 fold IC50 (reference). Besides, the Kd in data set [4] is approximately 0.3 nM.

B4: PE32-F-3T7 (ssDNA)
DNA: GGGAGCAGAACAGAGGAATGCAGTTTTTTTTA
B4: the binding result in data set [2] is on record as “binds”.

B5: dT32 (ssDNA)
DNA: TTTTTTTTTTTTTTTTTTTTTTTTTTTTTTTT
B5: the binding result in data set [5] is “no binding”.

B6: PE32-F-35T7 (ssDNA)
DNA: TTTTTTTGAACAGAGGAATGCAGTTTTTTTTA
In the case of B6, in data set [6], the binding signal was > 50 fold IC50 increase vs PE32-F.

B7: PE32-F-3I5T7 (ssDNA)
DNA: TTTTTTTGAACAGTTTTTTTCAGTTTTTTTTA
As to B7, in data set [7], the binding result is “no binding”.
